Measurements: the Human Domainome abundance scans (Beltran et al. 2025)
± gives the uncertainty stated by the source.

B1: Zinc finger MYM-type protein 6, residues 427 to 504; numbered along this chain, O95789 (parent)
chain: KLKCQHCNHLFATKPELLFYKGKMFLFCGKNCSDEYKKKNKVVAMCDYCKLQKIIKETVRFSGVDKPFCSEVCKFLSA
B2: Dynamin-binding protein, residues 242 to 304; numbered along this chain, Q6XZF7 (parent)
chain: EEPGTYGVALYRFQALEPNELDFEVGDKIRILATLEDGWLEGSLKGRTGIFPYRFVKLCPDTR

Variants of: B1
Experiment: abundance fitness (aPCA) (normalised: wild type 0, dead -1); higher = more abundant; growth selection in yeast, the domain comes from the species named
Conditions: Homo sapiens
With KLKCQHCNHLCATKPELLFYKGKMFLFCGKNCSDEYKKKNKVVAMCDYCKLQKIIKETVRFSGVDKPFCSEVCKFLSA [F11C] the abundance fitness was -0.098 ± 0.048. In the case of KLKCQHCNHLRATKPELLFYKGKMFLFCGKNCSDEYKKKNKVVAMCDYCKLQKIIKETVRFSGVDKPFCSEVCKFLSA [F11R], the abundance fitness is reported as -0.198 ± 0.031. Variant KLKCQHCNHLPATKPELLFYKGKMFLFCGKNCSDEYKKKNKVVAMCDYCKLQKIIKETVRFSGVDKPFCSEVCKFLSA [F11P] has an abundance fitness of -0.049 ± 0.037. KLKCQHCNHLFATKPELLFYKGKSFLFCGKNCSDEYKKKNKVVAMCDYCKLQKIIKETVRFSGVDKPFCSEVCKFLSA [M24S] gave an abundance fitness of 0.012 ± 0.048. Variant KLKCQHCNHLFATKPELLFYKGKMFLFCGKNCSDEYKKKNKVVAMCDYCKLQKIIKETVRDSGVDKPFCSEVCKFLSA [F61D] has an abundance fitness of 0.56 ± 0.09. With KLKKQHCNHLFATKPELLFYKGKMFLFCGKNCSDEYKKKNKVVAMCDYCKLQKIIKETVRFSGVDKPFCSEVCKFLSA [C4K] the abundance fitness was -0.687 ± 0.098. Work on KLKCQHCNHLFATKPELLFYKGKMFLFCGKNCSDEYKKKNKVVAMCDYCKLQKIIKETVKFSGVDKPFCSEVCKFLSA [R60K] yielded an abundance fitness of 0.041 ± 0.14. In the case of KLKCQHCNHLFATKPELLFYKGKMFLFCGKNCSDEYKKKNKVVAMCDYCKLQKIIKETVMFSGVDKPFCSEVCKFLSA [R60M], the abundance fitness is reported as 0.46 ± 0.14. Variant KLKCQHCNHLFATKPELLFYKGKMFLFCGKNCSDEYMKKNKVVAMCDYCKLQKIIKETVRFSGVDKPFCSEVCKFLSA [K37M] has an abundance fitness of -0.214 ± 0.15. KLKCQHCNHLFATKPELLFYKGKMFLFCGKNCSDEYTKKNKVVAMCDYCKLQKIIKETVRFSGVDKPFCSEVCKFLSA [K37T] showed an abundance fitness of -0.099 ± 0.04. KLKCQHCNHLFATKPELLFYKGKMFLFCGKNCSDEYKKKNKVVAMCDYCKLQKIIKETVRFSGYDKPFCSEVCKFLSA [V64Y] gave an abundance fitness of 0.387 ± 0.21. KLKCQHCNHLFATKPELLFYKGKMFLFCGKNCSDEYKKKNKVVAMCDYCKLQKIIKETVRFSGVDKPFCSEVCKDLSA [F75D] gave an abundance fitness of 0.671 ± 0.11. For KLKCQHCNHLFATKPELLFYKGKMFLFCGKNCSDEYKKKNKVVAMCDYCKLQKITKETVRFSGVDKPFCSEVCKFLSA [I55T], the abundance fitness was 0.161 ± 0.1. KLKCQHCNHLFAAKPELLFYKGKMFLFCGKNCSDEYKKKNKVVAMCDYCKLQKIIKETVRFSGVDKPFCSEVCKFLSA [T13A] showed an abundance fitness of -0.074 ± 0.034. In the case of KLKCQHCNHLFATKPELLFYKGKMGLFCGKNCSDEYKKKNKVVAMCDYCKLQKIIKETVRFSGVDKPFCSEVCKFLSA [F25G], the abundance fitness is reported as -0.028 ± 0.032. For KLKCQWCNHLFATKPELLFYKGKMFLFCGKNCSDEYKKKNKVVAMCDYCKLQKIIKETVRFSGVDKPFCSEVCKFLSA [H6W], the abundance fitness was -0.102 ± 0.032. Work on KLKCQICNHLFATKPELLFYKGKMFLFCGKNCSDEYKKKNKVVAMCDYCKLQKIIKETVRFSGVDKPFCSEVCKFLSA [H6I] yielded an abundance fitness of -0.154 ± 0.065. KLKCQACNHLFATKPELLFYKGKMFLFCGKNCSDEYKKKNKVVAMCDYCKLQKIIKETVRFSGVDKPFCSEVCKFLSA [H6A] showed an abundance fitness of -0.043 ± 0.031.

Variants of: B2
Experiment: as above
Conditions: Homo sapiens
For EEPGTYGVALYRFQALEPNELDFEVGDKIRILATLEDGWLEGSLKGRTGIFPYRFVKLCPDYR [T62Y], the abundance fitness was -0.127 ± 0.052. Variant EEPGTYGVALYRFQALEPNELDFEVGDKIRILATLEDGWLEGSLKGRTGIFPYRFVKLCPDWR [T62W] has an abundance fitness of -0.37 ± 0.19. Work on EEPGTYGVALYRFQALEPNELDFEVGDKIRILATLEDGWLEGSLKGRTGIFPYRFVKLCPDTH [R63H] yielded an abundance fitness of 0.065 ± 0.063. In the case of EEPGTYGVALYRFQALEPNELDFEVGDKIRILATLEDGWLEGSLKGRTGIFPYRFVKLCPDTF [R63F], the abundance fitness is reported as -0.216 ± 0.089. For EEPGTYGVALYRFQALEPNELDFEVGDKIRILATLEDGWLEGSLKGRTGIFPYRFVKLCPDTI [R63I], the abundance fitness was -0.012 ± 0.061. In the case of EEPGTYGVALYRFQALEPNELDFEVGDKIRILATLEDGWLEGSLKGRTGIFPYRFVKLCPDTG [R63G], the abundance fitness is reported as 0.119 ± 0.083. Work on EEPGTYGVALYRFQALEPNELDFEVGDKIRILATLEDGWLEGSLKGRTGIFPYRFVKLCPDTW [R63W] yielded an abundance fitness of -0.206 ± 0.16. For EEPGTYGVALYRFQALEPNELDFEVGDKIRILATLEDGWLEGSLKGRTGIFPYRFVKLCPDTC [R63C], the abundance fitness was -0.06 ± 0.062. Variant EEPGTYGVALYRFQALEPNELDFEVGDKIRILATLEDGWLEGSLKGRTGIFPYRFVKLCPDTE [R63E] has an abundance fitness of -0.455 ± 0.29. In the case of EEPGTYGVALYRFQALEPNELDFEVGDKIRILATLEDGWLEGSLKGRTGIFPYRFVKLCPDTS [R63S], the abundance fitness is reported as 0.15 ± 0.055. EEPGTYGVALYRFQALEPNELDFEVGDKIRILATLEDGWLEGSLKGRTGIFPYRFVKLCPDTM [R63M] showed an abundance fitness of 0.049 ± 0.14. For EEPGTYGVALYRFQALEPNELDFEVGDKIRILATLEDGWLEGSLKGRTGIFPYRFVKLCPDTQ [R63Q], the abundance fitness was -0.184 ± 0.19. EEPGTYGVALYRFQALEPNELDFEVGDKIRILATLEDGWLEGSLKGRTGIFPYRFVKLCPDTD [R63D] gave an abundance fitness of 0.125 ± 0.087. Variant EEPGTYGVALYRFQALEPNELDFEVGDKIRILATLEDGWLEGSLKGRTGIFPYRFVKLCPDTV [R63V] has an abundance fitness of -0.056 ± 0.079. For EEPGTYGVALYRFQALEPNELDFEVGDKIRILATLEDGWLEGSLKGRTGIFPYRFVKLCPDTP [R63P], the abundance fitness was 0.164 ± 0.089. For EEPGTYGVALYRFQALEPNELDFEVGDKIRILATLEDGWLEGSLKGRTGIFPYRFVKLCPDTL [R63L], the abundance fitness was -0.005 ± 0.083. EEPGTYGVALYRFQALEPNELDFEVGDKIRILATLEDGWLEGSLKGRTGIFPYRFVKLCPDTA [R63A] gave an abundance fitness of 0.087 ± 0.073. Work on EEPGTYGVALYRFQALEPNELDFEVGDKIRILATLEDGWLEGSLKGRTGIFPYRFVKLCPDTT [R63T] yielded an abundance fitness of 0.186 ± 0.056. With EEPGTYGVALYRFQALEPNELDFEVGDKIRILATLEDGWLEGSLKGRTGIFPYRFVKLCPDTN [R63N] the abundance fitness was 0.168 ± 0.064.
